Source: US20250134988A1 (WISTAR INSTITUTE OF ANATOMY AND BIOLOGY, published 2025)
Like-named read-outs stand apart in the source and are kept apart here.

Legend:
[1] = target: T1, CoV2_5P prefusion-stabilized spike protein (SARS-CoV-2, UniProt P0DTC2 14-1208); experiment: ELISA
T1 construct: also called 5P trimer; wildtype 5P

CoV2_5P_229EFP [2] = target: T2, CoV2_5P_229EFP (SARS-CoV-2 spike with 229E fusion …, UniProt P0DTC2 14-1208); experiment: ELISA, AUC
CoV2_5P_MERSFP [3] = target: T3, CoV2_5P_MERSFP (SARS-CoV-2 spike with MERS fusion …, UniProt P0DTC2 14-1208); experiment: ELISA, AUC
CoV2_5P_NL63FP [4] = target: T4, CoV2_5P_NL63FP (SARS-CoV-2 spike with NL63 fusion …, UniProt P0DTC2 14-1208); experiment: ELISA, AUC
CoV2_5P_OC43FP [5] = target: T5, CoV2_5P_OC43FP (SARS-CoV-2 spike with OC43 fusion …, UniProt P0DTC2 14-1208); experiment: ELISA, AUC
CoV2_5P_NonSFP [6] = target: T6, CoV2_5P_NonSFP (SARS-CoV-2, UniProt P0DTC2 14-1208); experiment: ELISA, AUC
T6 construct: also called scrambled fusion peptide spike

off-target V5 peptide = target: T7, off-target V5 peptide; experiment: ELISA on fusion peptides
T7 construct: also called V5 tag
T7 peptide: GKPIPNPLLGLDST

CoV2_5P_HKU1FP = CoV2_5P_HKU1FP (SARS-CoV-2 spike with HKU1 fusion …, UniProt P0DTC2 14-1208); experiment: ELISA AUC on 5P spikes with varying fusion peptides
[7] = target: T1, CoV2_5P prefusion-stabilized spike …; experiment: ELISA, AUC
[8] = target: T1, CoV2_5P prefusion-stabilized spike …; experiment: ELISA, AUC; remark: listed apart in the source
CoV2_5P_229EFP [9] = target: T2, CoV2_5P_229EFP; experiment: ELISA, AUC; remark: listed apart in the source
CoV2_5P_MERSFP [10] = target: T3, CoV2_5P_MERSFP; experiment: ELISA, AUC; remark: listed apart in the source
CoV2_5P_NL63FP [11] = target: T4, CoV2_5P_NL63FP; experiment: ELISA, AUC; remark: listed apart in the source
CoV2_5P_OC43FP [12] = target: T5, CoV2_5P_OC43FP; experiment: ELISA, AUC; remark: listed apart in the source
CoV2_5P_NonSFP [13] = target: T6, CoV2_5P_NonSFP; experiment: ELISA, AUC; remark: listed apart in the source
CoV2_5P_229EFP [14] = target: T2, CoV2_5P_229EFP; experiment: ELISA AUC on 5P spikes with varying fusion peptides
CoV2_5P_MERSFP [15] = target: T3, CoV2_5P_MERSFP; experiment: as above

B1: C2691 (antibody, V domains shown)
VH: QVQLQQSGPELVRPGESVKISCKGSGYTFTDYAMHWVKQSHAKSLEWIGIISFYYDNTKYNQNFKGKATMTVDKSSSTAYMELARLTSEDSAIYFCASQGIHYYGSFAYWGQGTLVTVSA
VL: DIVMTQSQKFMSTSVGDRVSVSCKASQNVGTNLGWYQQKPGQSPKALIYSASYRYSGVPDRFTGSGSGTDFTLTISNVQSEDLAEYFCQQYNSSPLTFGAGTKLELK
notes: also called lineage HV1-67/KV6-15 antibody C2691
B1: binds [1]; binds (CoV2_5P_229EFP [2]); binds (CoV2_5P_MERSFP [3]). B1: binds (CoV2_5P_NL63FP [4]); binds (CoV2_5P_OC43FP [5]); no binding (CoV2_5P_NonSFP [6]). B1: no binding (tested: dilution 0.05 (no unit)) (off-target V5 peptide); binds (CoV2_5P_HKU1FP).

B2: C2891 (antibody, V domains shown)
VH: QVQLQQSGPALVRPGESVKISCKGSGYTFTDYAMHWVKQSRAKSLEWIGIFSFYYDNTNYTQKFKGKATMTVDKSSSTAYMELARLTSEDSAIYYCASQGIHYYGSFAYWGQGTLVTVSA
VL: DIVMTQSQKFMSTSVGDRVSVTCKASQNVATNLGWYQQKPGQSPKTLIYSASYRYSGVPDRFTGSGSGTDFTLTISNVQSEDLAEYFCHQYNGYPLTFGAGTKLELK
B2: no binding [7]; no binding (CoV2_5P_229EFP [2]); no binding (CoV2_5P_MERSFP [3]). B2: no binding (CoV2_5P_NL63FP [4]); no binding (CoV2_5P_OC43FP [5]); no binding (CoV2_5P_NonSFP [6]).

B3: C2866 (antibody, V domains shown)
VH: QVQLQQSGPELVRPGESVKISCKGSGYTFTDYAMHWVKQSHAKSLEWIGIFSFYYDNTKYNQNFKGKATMTVDKSSSTAYMELARLTSEDSAIYFCASQGIHYYGSFAYWGQGTLVTVSA
VL: DIVMTQSQKFMSTSVGDRVSVTCKASQNVGTNVGWYQQKPGQSPQALIYSASYRYSGVPDRFTGSGSGTDFTLTISNVQSEDLAEYFCQQYNSYPLTFGAGTKLELK
notes: Lineage HV1-67/KV6-15
B3: no binding (CoV2_5P_NonSFP [6]).

B4: C2503 (antibody, V domains shown)
VH: QVQLQQSGPELVRPGESVKISCKGSGYTFTDYAMHWVKQSHSKSLEWIGIISFYYDNTKYNQNFKGKATMTVDKSSSTAYMELARLTSEDSAIYFCASQGIHYYGSFAYWGQGTLVTVSA
VL: DIVMTQSQKFMSTSVGDRVSVTCKASQNVGTNVGWYQQKPGQSHKALIYSASYRYSGVPDRFTGSGSGTDFTLTISNVQSEDLADYFCQQYNNYPLTFGAGTKLELK
notes: Lineage HV1-67/KV6-15
B4: no binding (CoV2_5P_NonSFP [6]).

B5: C668 (antibody, V domains shown)
VH: EVKLVESGGGLVKPGGSLKLSCLVSGITFSNDAMSWVRQTPEKRLEWVASISSGGRNYYPDSVKGRFTISRDNARNILYLQMSSLRSEDTAMYFCAREGISVWAMDYWGQGTSVTVSS
VL: DIVMTQAAFSNPVTLGTSASISCRSSKSLLHSNGITYLYWYLQRPGQSPQLLIYRMSNLASGVPDRFSSSGSGTDFTLRISRVEAEDVGVYYCAQNLELPPTFGGGTKLEIK
notes: also called lineage HV5-6-5/KV2-109 antibody C668
For B5, the “EC50 (read off the curve)” value [1] was about 0.2 µg/mL.

B6: C1766 (antibody, V domains shown)
VH: EVKLVESGGGLVKPGGSLKLSCVASGFTFSNDAMSWVRQTPEKRLEWVASISSGGRKYYPDNVKGRFTISRDNARNILYLQMSSLRSEDTAMYYCAREGIYVWAMDYWGQGTSVTVSS
VL: DIVMTQAAFSNPVTLGTSASISCRSSESLLHSNGITYLYWYLQKPGQSPQLLIYRMSNLASGVPDRFSSSGSGTDFTLRISRVEAEDVGVYYCAQNLELPPTFGGGTKLEIK
B6: binds [8]; binds (CoV2_5P_229EFP [9]); binds (CoV2_5P_MERSFP [10]). B6: binds (CoV2_5P_NL63FP [11]); binds (CoV2_5P_OC43FP [12]); no binding (CoV2_5P_NonSFP [13]). B6: binds (CoV2_5P_HKU1FP).

B7: C862 (antibody, V domains shown)
VH: EVKLVESGGGLVKPGGSLKLSCAASGITFSSSAMSWVRQTPEKRLEWVASISSGGHTYYLDSMKGRFTISRDNARNILYLQMGSLRSEDTAVYYCAREGIYVWAMDYWGQGTSVTVSS
VL: DIVMTQAAFSNPVTLGTSASISCRSSKSLLQSNGITYLYWYLQKPGQSPQLLIYRMSNLASGVPDRFSGSGSGTDFTLRISRVEAEDVGIYYCAQNLELPPTFGGGTKLEIK
B7: binds [8]; binds (CoV2_5P_NL63FP [11]); binds (CoV2_5P_OC43FP [12]). B7: no binding (CoV2_5P_NonSFP [13]); binds (CoV2_5P_229EFP [14]); binds (CoV2_5P_HKU1FP). B7: binds (CoV2_5P_MERSFP [15]).
